Here are results for three molecules from US20060040325A1 (AstraZeneca / MedImmune, published 2006).

For assay [1], the target named is T1, FcγRIIIA-streptavidin fusion protein (tetramer) (human; Streptomyces avidinii, UniProt P08637 17-208).
T1 construct: extracellular domain; also called FcγRIIIA tetramer; Fcγtetramer; not shown: streptavidin, amplified with primers SA1/SA2 from genomic DNA of Streptomyces avidinii
The experiment in a line: ELISA: antibody captured on protein A/G, FcγRIIIA tetramer, biotin-HRP, OD450. How it is done:
ELISA for FcγRIIIA Tetramer Binding: Microtiter plates were coated with protein A/G (PIERCE) solution (0.25 μg/ml) and incubated at 4° C. overnight. The plates were then washed with PB S/0.1% Tween and any remaining binding sites were blocked with 1% BSA. 50 μl of test antibody at 1:1 dilution (from 5000 ng/ml to 4.9 ng/ml), was added to each well and inclubated for 60 min at 37° C. 50 μl of 1:500 dilution of the Fcγtetramer was added to each well and incubated for 60 min at 37° C. followed by washing. 50 μl of 1:1000 dilution of biotin-conjugated HRP (PIERCE) was added to each well and incubated for 30 min at 37° C. Detection was carried out by adding 30 μl of tetramethylbenzidine (TMB) substrate (Pierce) followed by neutralization with 30 μl of 0.2 M H₂SO₄. The absorbance was read at 450 nm.
Background: ELISA stands for enzyme-linked immunosorbent assay.

The target of assay [2] is T2, human C1q complement protein (human, UniProt P02745 23-245; P02746 28-253; P02747 29-245).
T2 construct: Bought protein ('Quidal, SanDiego')
T2 sequence (P02745 23-245 limits assumed, chain 1 of 3): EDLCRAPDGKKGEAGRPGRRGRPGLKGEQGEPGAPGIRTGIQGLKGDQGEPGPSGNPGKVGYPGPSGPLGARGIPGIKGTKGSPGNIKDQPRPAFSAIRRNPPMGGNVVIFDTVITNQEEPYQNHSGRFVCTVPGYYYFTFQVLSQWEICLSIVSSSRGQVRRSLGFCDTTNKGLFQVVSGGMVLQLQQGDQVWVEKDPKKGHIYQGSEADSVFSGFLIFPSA
T2 sequence (P02746 28-253 limits assumed, chain 2 of 3): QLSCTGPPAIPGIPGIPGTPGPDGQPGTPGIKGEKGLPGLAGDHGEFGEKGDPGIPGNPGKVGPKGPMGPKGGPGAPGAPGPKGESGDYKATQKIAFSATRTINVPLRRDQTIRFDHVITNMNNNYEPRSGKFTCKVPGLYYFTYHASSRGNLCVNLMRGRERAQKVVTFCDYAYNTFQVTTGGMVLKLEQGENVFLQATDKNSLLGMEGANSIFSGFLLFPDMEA
T2 sequence (P02747 29-245 limits assumed, chain 3 of 3): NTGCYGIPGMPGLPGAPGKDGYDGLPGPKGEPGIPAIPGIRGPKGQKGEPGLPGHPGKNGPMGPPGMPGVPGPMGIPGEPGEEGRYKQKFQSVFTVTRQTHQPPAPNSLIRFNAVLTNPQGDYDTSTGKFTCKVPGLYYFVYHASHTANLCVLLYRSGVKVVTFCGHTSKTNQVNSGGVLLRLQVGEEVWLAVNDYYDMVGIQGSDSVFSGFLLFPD
Briefly: ELISA: antibody coated on the plate, human C1q, anti-C1q antibody, HRP conjugate, OD450. The procedure:
ELISA for C1q Binding: Microtiter plates were coated with 50 μl of test antibody at concentration range from 20 μg/ml to […] and incubated at 4° C. overnight. The plate was then blocked with 5% nonfat powdered milk for 60 min at 37° C. 50 μl of 5 μg/ml human C1q complement protein (Quidal, SanDiego) was added to each well and inclubated for 60 min at 37° C. 50 μl of 1:1000 dilution of anti-complement C1q antibody (Biodesign) was added to each well and incubated for 60 min at 37° C. 50 μl of 1:1000 dilution of donkey anti-sheep/goat antibody-conjugated HRP (PIERCE) was added to each well and incubated for 60 min at 37° C. Detection was carried out by adding 30 μl of tetramethylbenzidine (TMB) substrate (Pierce) followed by neutralization with 30 μl of 0.2 M H₂SO₄. The absorbance was read at 450 nm.

Assay [3] deals with T3, FcγRIIIA (soluble receptor used as analyte in the BIAcore runs) (human, UniProt P08637 17-208).
T3 construct: extracellular domain; The BIAcore methods only say 'FcγRIIIA'; also called FcγIIIA
T3 sequence (P08637 17-208): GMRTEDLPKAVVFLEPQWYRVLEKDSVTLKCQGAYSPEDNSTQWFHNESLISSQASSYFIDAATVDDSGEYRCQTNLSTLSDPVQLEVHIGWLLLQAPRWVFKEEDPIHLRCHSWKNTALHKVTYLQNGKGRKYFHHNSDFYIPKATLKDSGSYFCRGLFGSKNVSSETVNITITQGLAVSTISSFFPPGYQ
Briefly: SPR (BIAcore 3000), IgG amine-coupled to CM5, soluble FcγRIIIA injected; Scatchard plot of Req; Run 3. How it is done: (§1) FcγRIIIA was serially diluted in 0.01 M HEPES pH 7.4 containing 0.15 M NaCl, 3 mM EDTA and 0.005% P20, at concentrations ranging from 16 uM down to 7.8 nM. Duplicate injections of each concentration were made. All binding experiments were performed at 25° C., and at a flow rate of 10 uL/min. Binding was monitored for 25 min. Following each injection of FcγRIIIA, the IgG surfaces were regenerated with a 30 sec. pulse of 5 mM HCl. FcγRIIIA was also passed over a blank reference cell which is connected, in series, to the IgG-containing flow cells. The steady-state binding curves were also corrected for injection artifacts by subtraction of buffer injections. This doubly-corrected data was then fit to a steady-state isotherm provided by the instrument manufacturer (Pharmacia Biosensor, Uppsala, Sweden) to derive the respective equilibrium binding constants (KD). Separately, a Scatchard plot of the Req data from each IgG surface was constructed to confirm the results of the binding isotherms.
Background: SPR reads the build-up and loss of mass on a sensor chip optically.

In assay [4] the target is T3, FcγRIIIA (soluble receptor used as …). Briefly: SPR (BIAcore 3000), IgG amine-coupled to CM5, soluble FcγRIIIA injected; steady-state isotherm; Run 3. The procedure: as §1
Assay [5] has the same target. The experiment in a line: SPR (BIAcore 3000), Run 3; calculated from isotherm KD values against wild type 3F2. How it is done:
as §1

T1 sequence (P08637 17-208 limits assumed): as the sequence (P08637 17-208) above

B1: 3F2 (wild type anti-EphA2 antibody, IgG1) (antibody)
heavy: not shown
VL: AIQLTQSPSSLSASVGDRVTITCRASQSISNNLHWYLQKPGQSPQLLIYYGFQSISGVPSRFSGSGSGTDFTLTISSLQPEDFATYYCQQANSWPLTFGGGTKLEIK
notes: domain: IgG1 heavy chain constant region; 3F2 variable regions placed in the Vitaxin® IgG1 plasmid and made in NS0 cells; The light chain constant region is not described; also called 3F2-wt; 3F2-WT; copies: 2 + 2
In general, EC50 (read off the curve) refers to the concentration at which the effect is half-maximal. A word on the Kd: it is the concentration at which binding is half-saturated. Take B1: the “EC50 (read off the curve)” value in assay [1] was around 0.2 µg/mL. The binding result in assay [2] is on record as “binds”. Besides, the figures for the Kd in assay [3] and in assay [4] were 14200 nM and 15600 nM, respectively.

B2: 3F2-1M (3F2 Fc variant I332E, IgG1) (antibody, name in EU numbering)
heavy: not shown
VL: AIQLTQSPSSLSASVGDRVTITCRASQSISNNLHWYLQKPGQSPQLLIYYGFQSISGVPSRFSGSGSGTDFTLTISSLQPEDFATYYCQQANSWPLTFGGGTKLEIK
notes: domain: IgG1 heavy chain constant region; Made in NS0 cells; The light chain constant region is not described; also called 3F2 I332E; 3F2-IM; copies: 2 + 2
For the molecule B2, the “Fold increase over WT” value in assay [5] was 8.8 fold. Moreover, the “EC50 (read off the curve)” value in assay [1] is around 0.05 µg/mL. Also, the binding result in assay [2] is “binds”. Besides, the values for the Kd in assay [3] and in assay [4] were 1680 nM and 1770 nM, respectively.

B3: 3F2-3M (3F2 Fc variant S239D/A330L/I332E, IgG1) (antibody, name in EU numbering)
heavy: EVQLVESGGGVVRPGGSLRLSCAASGFTVSDYSMNWVRQAPGKGLEWIGFIRNKANAYTTEYSASVKGRFTISRDDSKNTLYLQMNSLKTEDTAVYYCTTYPRYHAMDSWGQGTMVTVSSASTKGPSVFPLAPSSKSTSGGTAALGCLVKDYFPEPVTVSWNSGALTSGVHTFPAVLQSSGLYSLSSVVTVPSSSLGTQTYICNVNHKPSNTKVDKKVEPKSCDKTHTCPPCPAPELLGGPDVFLFPPKPKDTLMISRTPEVTCVVVDVSHEDPEVKFNWYVDGVEVHNAKTKPREEQYNSTYRVVSVLTVLHQDWLNGKEYKCKVSNKALPLPEEKTISKAKGQPREPQVYTLPPSRDELTKNQVSLTCLVKGFYPSDIAVEWESNGQPENNYKTTPPVLDSDGSFFLYSKLTVDKSRWQQGNVFSCSVMHEALHNHYTQKSLSLSPGK
VL: AIQLTQSPSSLSASVGDRVTITCRASQSISNNLHWYLQKPGQSPQLLIYYGFQSISGVPSRFSGSGSGTDFTLTISSLQPEDFATYYCQQANSWPLTFGGGTKLEIK
notes: domain: IgG1 heavy chain constant region; Made in NS0 cells; The light chain constant region is not described; also called 3F2 S239D/A330L/I332E; 3M Fc variant; copies: 2 + 2
On to B3, for which the “Fold increase over WT” value in assay [5] is 99 fold. Further, in assay [1], the “EC50 (read off the curve)” value was around 0.05 µg/mL. Besides, the binding result in assay [2] was “binds”. The Kd in assay [3] amounted to 162 nM; in assay [4], 158 nM.
